Series [1] concerns the target sclerostin (UniProt Q9BQB4 24-213). Description: BLI. A general note: In BLI a coated tip is dipped into the sample, and binding shifts an interference pattern.
The target of series [2] is T1, sclerostin loop 3-6 (sites 127-128 mutated) (UniProt Q9BQB4 135-169, G151A;E152A).
T1 chain: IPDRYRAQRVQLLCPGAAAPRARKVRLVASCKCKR
In words: BLI.

sclerostin, sequence (Q9BQB4 24-213): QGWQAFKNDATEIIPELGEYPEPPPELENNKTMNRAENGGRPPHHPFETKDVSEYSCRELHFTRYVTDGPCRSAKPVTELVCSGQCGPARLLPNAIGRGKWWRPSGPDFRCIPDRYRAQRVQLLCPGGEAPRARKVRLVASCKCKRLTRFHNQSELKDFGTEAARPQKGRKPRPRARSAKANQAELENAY

Broadly, the Kd is the constant that tells how readily two partners part at equilibrium. Lower therefore signals higher affinity. In the case of CGGGGTGTGGGTTCGTCGTTAGCTTGATTTGGCAGCTGCC (ssDNA) [Aptscl56], in series [1], the Kd was determined as 68.6 nM. Besides, in series [2], the binding result is reported as “no binding”.

For the origin of these results see article PMC10914587.
